In patent US5622930A, “C1 inhibitor muteins and uses thereof” (CLB, priority 1991, dated 1997):

System: C1s
Test: radioimmune assay of complex formation of C1 inhibitor muteins with solid phase C1s
Format: binding
Details: muteins altered only at P3 (position 442, substituted for Val), FIG. 3
Text: FIG. 2 presents a generalized assay screening format for determining both the inhibitory (complex formation) or protease sensitivity (inactivation) of the C1 muteins. The latter measures inactivation of the C1 inhibitor muteins by non-target proteases. This procedure is also described by Eldering et al., 1988, in J. of Biological Chem., 263: 11776. Modifications of these methods are also known in the art.
Generally, inhibitor activity of C1 muteins may be determined by measuring complex formation between the C1 inhibitor and a substrate. The preferred substrates are, of course, C1s, Kallikrein, B-12a, and plasmin. The C1 inhibitor, or C1 inhibitor muteins, inhibit the protease activity of the substrate by forming a covalent bond with the substrate. These molecules were purified by techniques known in the art, or as described by Liebermann, H., etal., 1984, J. Mol. Biol., 177: 531 and Nuijens, J.,et al., 1987, Immunology, 61: 387.
The preferred assay is a radioimmune assay based on the observation that functional C1 inhibitor muteins bind to activated target substrate, such as C1s. The assay can be performed in several ways, but preferably purified activated C1s is coupled to a solid matrix, preferably Sepharose 4B via cyanogen bromide as is known in the art. Coupled C1s is incubated in an appropriately buffered solution containing, if desired, a small amount of detergent, preferably Tween-20. The latter is used at a concentration of about 0.1% (w/v). The capacity of the C1 inhibitor muteins to complex with the target substrate can be detected using anti-C1 inhibitor mutein antibody. Alternatively, a radiolabelled second antibody can be used to detect the bound first antibody. The antibody may be polyclonal or monoclonal and is incubated for a sufficient time to permit detectible binding of the antibody to the C1 inhibitor to occur. After the appropriate washing steps are conducted whereby non-specifically bound radiolabelled antibody is separated from antibody bound to C1 inhibitor muteins, the amount of radioactivity associated with the latter is determined. In this way, and incorporating the appropriate controls in the assay scheme, the inhibitory capacity of the C1 muteins is determined.
The general procedures for determining both the inhibitory or non-target protease sensitivity of the C1 inhibitor muteins are shown in FIG. 2. The procedures involving C1s will be described briefly, the procedures for the other substrates is similar with modifications as noted by Eldering, 1988, J. Biological Chem., 263: 11776, and as shown by Nuijens et al., above.
As mentioned above, the radioimmune assay to determine the C1 inhibitor activity of the various muteins is based on the observation that functional C1 inhibitor mutein will bind to activated C1s. Thus, purified activated C1s is coupled to CNBr Sepharose 4B and suspended in phosphate-buffered saline, pH 7.4 10 mM EDTA, and 0.1% (w/v) Tween-20. Next, 0.3 ml of this mixture containing 1.5 μg of activated C1s is incubated with various dilutions of the C1 inhibitor muteins for 5 hours. The Sepharose 4B beads are collected, extensively washed, and complexed C1 inhibitor mutein incubated (>4hours) with ^125 I-polyclonal anti-C1 antibody. The antibody is described by Hack, et al., above. The Sepharose beads are washed, and bound radioactivity determined using a LKB 1260 multigamma II gamma counter.

B1: P3-arg: C1 inhibitor mutein with Arg substituted for Val at position 442 (P3) (protein, UniProt P05155 23-500, looked up, variant V442R)
Plasma protease C1 inhibitor: NPNATSSSSQDPESLQDRGEGKVATTVISKMLFVEPILEVSSLPTTNSTTNSATKITANTTDEPTTQPTTEPTTQPTIQPTQPTTQLPTDSPTQPTTGSFCPGPVTLCSDLESHSTEAVLGDALVDFSLKLYHAFSAMKKVETNMAFSPFSIASLLTQVLLGAGENTKTNLESILSYPKDFTCVHQALKGFTTKGVTSVSQIFHSPDLAIRDTFVNASRTLYSSSPRVLSNNSDANLELINTWVAKNTNNKISRLLDSLPSDTRLVLLNAIYLSAKWKTTFDPKKTRMEPFHFKNSVIKVPMMNSKKYPVAHFIDQTLKAKVGQLQLSHNLSLVILVPQNLKHRLEDMEQALSPSVFKAIMEKLEMSKFQPTLLTLPRIKVTTSQDMLSIMEKLEFFDFSYDLNLCGLTEDPDLQVSAMQHQTVLELTETGVEAAAASAISRARTLLVFEVQQPFLFVLWDQQHKFPVFMGRVYDPRA
  complex formation (inhibitory activity), order among P3 muteins: Arg=Gly<Ala<Leu<wild-type=Thr

B2: P3-gly: C1 inhibitor mutein with Gly substituted for Val at position 442 (P3) (protein, UniProt P05155 23-500, looked up, variant V442G)
Plasma protease C1 inhibitor: NPNATSSSSQDPESLQDRGEGKVATTVISKMLFVEPILEVSSLPTTNSTTNSATKITANTTDEPTTQPTTEPTTQPTIQPTQPTTQLPTDSPTQPTTGSFCPGPVTLCSDLESHSTEAVLGDALVDFSLKLYHAFSAMKKVETNMAFSPFSIASLLTQVLLGAGENTKTNLESILSYPKDFTCVHQALKGFTTKGVTSVSQIFHSPDLAIRDTFVNASRTLYSSSPRVLSNNSDANLELINTWVAKNTNNKISRLLDSLPSDTRLVLLNAIYLSAKWKTTFDPKKTRMEPFHFKNSVIKVPMMNSKKYPVAHFIDQTLKAKVGQLQLSHNLSLVILVPQNLKHRLEDMEQALSPSVFKAIMEKLEMSKFQPTLLTLPRIKVTTSQDMLSIMEKLEFFDFSYDLNLCGLTEDPDLQVSAMQHQTVLELTETGVEAAAASAISGARTLLVFEVQQPFLFVLWDQQHKFPVFMGRVYDPRA
  complex formation (inhibitory activity), order among P3 muteins: Arg=Gly<Ala<Leu<wild-type=Thr

B3: P3-leu: C1 inhibitor mutein with Leu substituted for Val at position 442 (P3) (protein, UniProt P05155 23-500, looked up, variant V442L)
Plasma protease C1 inhibitor: NPNATSSSSQDPESLQDRGEGKVATTVISKMLFVEPILEVSSLPTTNSTTNSATKITANTTDEPTTQPTTEPTTQPTIQPTQPTTQLPTDSPTQPTTGSFCPGPVTLCSDLESHSTEAVLGDALVDFSLKLYHAFSAMKKVETNMAFSPFSIASLLTQVLLGAGENTKTNLESILSYPKDFTCVHQALKGFTTKGVTSVSQIFHSPDLAIRDTFVNASRTLYSSSPRVLSNNSDANLELINTWVAKNTNNKISRLLDSLPSDTRLVLLNAIYLSAKWKTTFDPKKTRMEPFHFKNSVIKVPMMNSKKYPVAHFIDQTLKAKVGQLQLSHNLSLVILVPQNLKHRLEDMEQALSPSVFKAIMEKLEMSKFQPTLLTLPRIKVTTSQDMLSIMEKLEFFDFSYDLNLCGLTEDPDLQVSAMQHQTVLELTETGVEAAAASAISLARTLLVFEVQQPFLFVLWDQQHKFPVFMGRVYDPRA
  complex formation (inhibitory activity), order among P3 muteins: Arg=Gly<Ala<Leu<wild-type=Thr

B4: wild-type: wild type C1 inhibitor, plasma glycoprotein serine protease inhibitor with isoleucine and valine at positions 440 and 442 (protein, UniProt P05155 23-500, looked up)
Plasma protease C1 inhibitor: NPNATSSSSQDPESLQDRGEGKVATTVISKMLFVEPILEVSSLPTTNSTTNSATKITANTTDEPTTQPTTEPTTQPTIQPTQPTTQLPTDSPTQPTTGSFCPGPVTLCSDLESHSTEAVLGDALVDFSLKLYHAFSAMKKVETNMAFSPFSIASLLTQVLLGAGENTKTNLESILSYPKDFTCVHQALKGFTTKGVTSVSQIFHSPDLAIRDTFVNASRTLYSSSPRVLSNNSDANLELINTWVAKNTNNKISRLLDSLPSDTRLVLLNAIYLSAKWKTTFDPKKTRMEPFHFKNSVIKVPMMNSKKYPVAHFIDQTLKAKVGQLQLSHNLSLVILVPQNLKHRLEDMEQALSPSVFKAIMEKLEMSKFQPTLLTLPRIKVTTSQDMLSIMEKLEFFDFSYDLNLCGLTEDPDLQVSAMQHQTVLELTETGVEAAAASAISVARTLLVFEVQQPFLFVLWDQQHKFPVFMGRVYDPRA
  complex formation (inhibitory activity), order among P3 muteins: Arg=Gly<Ala<Leu<wild-type=Thr

B5: P3-thr: C1 inhibitor mutein with Thr substituted for Val at position 442 (P3) (protein, UniProt P05155 23-500, looked up, variant V442T)
Plasma protease C1 inhibitor: NPNATSSSSQDPESLQDRGEGKVATTVISKMLFVEPILEVSSLPTTNSTTNSATKITANTTDEPTTQPTTEPTTQPTIQPTQPTTQLPTDSPTQPTTGSFCPGPVTLCSDLESHSTEAVLGDALVDFSLKLYHAFSAMKKVETNMAFSPFSIASLLTQVLLGAGENTKTNLESILSYPKDFTCVHQALKGFTTKGVTSVSQIFHSPDLAIRDTFVNASRTLYSSSPRVLSNNSDANLELINTWVAKNTNNKISRLLDSLPSDTRLVLLNAIYLSAKWKTTFDPKKTRMEPFHFKNSVIKVPMMNSKKYPVAHFIDQTLKAKVGQLQLSHNLSLVILVPQNLKHRLEDMEQALSPSVFKAIMEKLEMSKFQPTLLTLPRIKVTTSQDMLSIMEKLEFFDFSYDLNLCGLTEDPDLQVSAMQHQTVLELTETGVEAAAASAISTARTLLVFEVQQPFLFVLWDQQHKFPVFMGRVYDPRA
  complex formation (inhibitory activity), order among P3 muteins: Arg=Gly<Ala<Leu<wild-type=Thr

B6: P3-ala: C1 inhibitor mutein with Ala substituted for Val at position 442 (P3) (protein, UniProt P05155 23-500, looked up, variant V442A)
Plasma protease C1 inhibitor: NPNATSSSSQDPESLQDRGEGKVATTVISKMLFVEPILEVSSLPTTNSTTNSATKITANTTDEPTTQPTTEPTTQPTIQPTQPTTQLPTDSPTQPTTGSFCPGPVTLCSDLESHSTEAVLGDALVDFSLKLYHAFSAMKKVETNMAFSPFSIASLLTQVLLGAGENTKTNLESILSYPKDFTCVHQALKGFTTKGVTSVSQIFHSPDLAIRDTFVNASRTLYSSSPRVLSNNSDANLELINTWVAKNTNNKISRLLDSLPSDTRLVLLNAIYLSAKWKTTFDPKKTRMEPFHFKNSVIKVPMMNSKKYPVAHFIDQTLKAKVGQLQLSHNLSLVILVPQNLKHRLEDMEQALSPSVFKAIMEKLEMSKFQPTLLTLPRIKVTTSQDMLSIMEKLEFFDFSYDLNLCGLTEDPDLQVSAMQHQTVLELTETGVEAAAASAISAARTLLVFEVQQPFLFVLWDQQHKFPVFMGRVYDPRA
  complex formation (inhibitory activity), order among P3 muteins: Arg=Gly<Ala<Leu<wild-type=Thr
